These results are taken from IntAct's records for PubMed 20927106.

Sequences and labels used below:
B1: Coronatine-insensitive protein 1 (Arabidopsis thaliana (Mouse-ear cress)), O04197 (parent)
chain: MEDPDIKRCKLSCVATVDDVIEQVMTYITDPKDRDSASLVCRRWFKIDSETREHVTMALCYTATPDRLSRRFPNLRSLKLKGKPRAAMFNLIPENWGGYVTPWVTEISNNLRQLKSVHFRRMIVSDLDLDRLAKARADDLETLKLDKCSGFTTDGLLSIVTHCRKIKTLLMEESSFSEKDGKWLHELAQHNTSLEVLNFYMTEFAKISPKDLETIARNCRSLVSVKVGDFEILELVGFFKAAANLEEFCGGSLNEDIGMPEKYMNLVFPRKLCRLGLSYMGPNEMPILFPFAAQIRKLDLLYALLETEDHCTLIQKCPNLEVLETRNVIGDRGLEVLAQYCKQLKRLRIERGADEQGMEDEEGLVSQRGLIALAQGCQELEYMAVYVSDITNESLESIGTYLKNLCDFRLVLLDREERITDLPLDNGVRSLLIGCKKLRRFAFYLRQGGLTDLGLSYIGQYSPNVRWMLLGYVGESDEGLMEFSRGCPNLQKLEMRGCCFSERAIAAAVTKLPSLRYLWVQGYRASMTGQDLMQMARPYWNIELIPSRRVPEVNQQGEIREMEHPAHILAYYSLAGQRTDCPTTVRVLKEPI
partner: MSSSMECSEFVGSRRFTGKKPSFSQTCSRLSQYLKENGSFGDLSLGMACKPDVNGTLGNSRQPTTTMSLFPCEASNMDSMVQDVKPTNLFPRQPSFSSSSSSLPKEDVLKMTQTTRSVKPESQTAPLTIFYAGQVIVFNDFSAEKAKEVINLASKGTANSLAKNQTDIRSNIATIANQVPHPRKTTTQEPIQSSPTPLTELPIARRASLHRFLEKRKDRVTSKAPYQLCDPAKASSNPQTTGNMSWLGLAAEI

The assay covers variants of B1. Conditions: with ti10a_arath TIFY10A.
Regarding R85A, the “effect of a mutation on the interaction” value is on record as “disrupting interaction”.
Regarding R351A, the “effect of a mutation on the interaction” value is listed as “disrupting interaction”.
In the case of R348A it was “disrupting interaction”.
In the case of Y444A it was “disrupting interaction”.
The value for R409A was “disrupting interaction”.
For the variant R496A, the “effect of a mutation on the interaction” value is on record as “disrupting interaction”.
As for M88A, the “effect of a mutation on the interaction” value is given as “disrupting interaction”.
For the variant Y386A, the “effect of a mutation on the interaction” value is “disrupting interaction”.
Regarding Y302A, the “effect of a mutation on the interaction” value is given as “disrupting interaction”.
In the case of F89A it was “disrupting interaction”; in that of L469A, “disrupting interaction”.
Regarding R121A, the “effect of a mutation on the interaction” value is reported as “disrupting interaction”.
With L301A, the “effect of a mutation on the interaction” value is reported as “disrupting interaction”.
As for R326A, the “effect of a mutation on the interaction” value is “disrupting interaction”.
